The values below come from patent publication US20030060605A1 (LA JOLLA INSTITUTE FOR ALLERGY AND IMMUNOLOGY, published 2003).

Broadly, the Kd is a measure of binding affinity in units of concentration. Higher therefore signals lower affinity. A word on the koff: it is the first-order rate constant of dissociation. Low readings indicate a long-lived complex, high ones a short-lived complex. A word on the kon: it is a measure of how fast the partners come together. A low value points to slower complex formation. Broadly, the EC50 (read off the curve) is the concentration giving half of the maximal effect. Read a high EC50 (read off the curve) as weaker potency.

Assay [1] deals with HVEM:Fc fusion protein (extracellular region of HVEM, 1 to K184, fused to the Fc of human IgG1) (human) (UniProt Q92956). Briefly: SPR (BIAcore 1000). Background: In SPR one partner is held on a chip, and binding of the other changes the refractive index at the surface.
For assay [2] the target is unchanged. Description: SPR (BIAcore 1000), receptor:Fc amine-coupled to CM5, LIGHT mutant as analyte.
For assay [3], the target named is LTβR on the surface of human cells (HT29, NHDF) (human) (UniProt P36941). Description: cell-based or functional assay.
The target of assay [4] is mouse HVEM:Fc (extracellular region of mouse HVEM, Met1 to Ser205, fused to the Fc of human IgG1) (mouse; human) (UniProt Q80WM9). Briefly: ELISA, receptor:Fc coated as capture (150 ng/well), FLAG-tagged ligand, M2 anti-FLAG and goat anti-mouse HRP, OD 415 [panel mouse HVEM:Fc].
Assay [5] concerns the target human LTβR:Fc (human) (UniProt P36941). Briefly: SPR (BIAcore 1000), receptor:Fc amine-coupled to CM5, LIGHT mutant as analyte.
The target in assay [6] is HVEM:Fc fusion protein (extracellular region of HVEM, 1 to K184, fused to the Fc of human IgG1) (human) (UniProt Q92956). Description: SPR (BIAcore 1000), receptor:Fc amine-coupled to CM5, LIGHT as analyte 100-500 nM.
Assay [7] deals with human LTβR:Fc (human) (UniProt P36941). The assay is described as above.
The target of assay [8] is mouse LTβR:Fc (residues 1 to Met221 of the extracellular domain of mouse LTβR) (mouse) (UniProt P50284). Briefly: ELISA, receptor:Fc as capture, M2 anti-FLAG detection. On the technique in general: ELISA stands for enzyme-linked immunosorbent assay.
Chain of mouse LTβR:Fc (residues 1 to Met221 of the extracellular domain of mouse LTβR) (mouse) (P50284 31-221): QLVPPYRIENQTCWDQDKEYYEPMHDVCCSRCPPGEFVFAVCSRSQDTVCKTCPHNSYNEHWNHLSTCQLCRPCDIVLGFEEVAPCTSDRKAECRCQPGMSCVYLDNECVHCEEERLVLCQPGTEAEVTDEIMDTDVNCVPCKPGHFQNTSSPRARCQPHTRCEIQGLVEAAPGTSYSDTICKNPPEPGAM
Assay [9] concerns the target mouse HVEM:Fc (extracellular region of mouse HVEM, Met1 to Ser205, fused to the Fc of human IgG1) (mouse; human) (UniProt Q80WM9). Described as above.
The target in assay [10] is human LTβR:Fc (human) (UniProt P36941). Description: ELISA, receptor:Fc coated as capture (150 ng/well), FLAG-tagged ligand, M2 anti-FLAG and goat anti-mouse HRP, OD 415 [panel Human LTβR:Fc].
The target of assay [11] is HVEM:Fc fusion protein (extracellular region of HVEM, 1 to K184, fused to the Fc of human IgG1) (human) (UniProt Q92956). Description: ELISA, receptor:Fc coated as capture (150 ng/well), FLAG-tagged ligand, M2 anti-FLAG and goat anti-mouse HRP, OD 415 [panel human HVEM:Fc].
Assay [12] deals with p30 (LIGHT), the 30 kDa cell surface HVEM ligand of activated II-23.D7 T hybridoma cells and human T cells (human) (UniProt O43557). Description: competition flow cytometry: II-23.D7 cells activated with PMA and ionomycin, pre-incubated with the Fc protein, then HVEM:Fc-rabbit 2 µg/ml, goat anti-rabbit IgG-PE; competitor displaced: HVEM:rbFc [lower graph].
Chain of p30 (LIGHT), the 30 kDa cell surface HVEM ligand of activated II-23.D7 T hybridoma cells and human T cells (human) (O43557 whole entry, the tested form may be a part): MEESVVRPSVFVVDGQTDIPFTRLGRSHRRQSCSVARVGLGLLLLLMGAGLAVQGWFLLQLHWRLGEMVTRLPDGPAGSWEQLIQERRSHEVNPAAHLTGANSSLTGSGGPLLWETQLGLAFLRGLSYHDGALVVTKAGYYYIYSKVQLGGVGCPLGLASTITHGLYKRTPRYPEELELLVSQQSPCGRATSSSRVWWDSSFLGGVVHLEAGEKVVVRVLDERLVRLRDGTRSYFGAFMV
Assay [13] has as its target T1, HVEM:Fc fusion protein (extracellular region of HVEM, 1 to K184, fused to the Fc of human IgG1) (human, UniProt Q92956 39-184).
T1 construct: range 1-184; Made in the baculovirus vector pVL1392; Residues 1-184 include the signal peptide; also called huHVEM:Fc; hu HVEM:Fc; not shown: Fc of human IgG1
T1 sequence (looked up): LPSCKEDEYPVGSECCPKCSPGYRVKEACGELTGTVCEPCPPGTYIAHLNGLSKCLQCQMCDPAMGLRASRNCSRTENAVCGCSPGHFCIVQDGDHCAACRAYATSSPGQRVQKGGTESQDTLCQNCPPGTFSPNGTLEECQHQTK
Briefly: competition flow cytometry: HVEM:Fc 2 µg/ml pre-incubated with the gD-1 protein 30 min at 4 C, then added to II-23.D7 cells activated with PMA and ionomycin (p30 on the cells) [lower graph]. For orientation: In flow cytometry, cells or beads pass a laser one at a time.

Assay [14] concerns the target LTβR on the surface of human cells (HT29, NHDF) (human, UniProt P36941 31-435). Description: cell-based or functional assay.
Assay [15] has as its target T1, HVEM:Fc fusion protein (extracellular …). Description: competition flow cytometry: HVEM:Fc pre-incubated with the ligand 30 min at 4 C, then added to II-23.D7 cells activated with PMA and ionomycin (p30 on the cells), anti-huIgG-PE [lower graph].
Assay [16] shares this target. Briefly: competition flow cytometry: HVEM:Fc pre-incubated with the ligand, then added to II-23.D7 cells activated with PMA and ionomycin (p30 on the cells), anti-huIgG-PE [lower graph].
Assay [17] has as its target T2, p30 (LIGHT), the 30 kDa cell surface HVEM ligand of activated II-23.D7 T hybridoma cells and human T cells (human, UniProt O43557 1-240).
T2 construct: whole, on cells; On the cell surface in flow cytometry; in NP40 detergent extracts in the precipitations
Briefly: competition flow cytometry: II-23.D7 cells activated with PMA and ionomycin, pre-incubated with the Fc protein, then HVEM:Fc-rabbit 2 µg/ml, goat anti-rabbit IgG-PE [lower graph].

T2 sequence (O43557 whole entry): as the sequence (O43557 whole entry, the tested form may be a part) above

LIGHTt66-FLAG mutant G119E (ligand) registered a fold lower affinity than LIGHT t66 in assay [1] of 30 fold. Further, in assay [2], the Kd amounted to 114 nM, the koff is 0.002 s⁻¹ and the kon turned out to be 18000 M⁻¹ s⁻¹. In addition, in assay [3], the up-regulation of ICAM expression by NHDF cells (fold induction, flow cytometry) was less than 1.5 fold.

The molecule LIGHTt66-FLAG mutant Q117T (ligand) returned an EC50 (read off the curve) in [4] of 0.9 nM. For the same molecule, in assay [2], the Kd is 0.3 nM and the kon came out at 20000 M⁻¹ s⁻¹. In assay [5], this molecule came in with a Kd of 1.5 nM and a dissociation rate constant (koff) of 4.5e-05 s⁻¹. In [3], this molecule displayed a 50% cell death of HT29 cells (MTT, 72 h, with IFNγ) of 10 µM.

For “LIGHTt66-FLAG, recombinant soluble homotrimeric LIGHT lacking the N-terminal 66 amino acids (ligand)”, in [6], the Kd amounted to 3.9 nM, the off-rate (koff) is 4.8e-05 s⁻¹ and the kon turned out to be 12000 M⁻¹ s⁻¹. In [7], this molecule showed a Kd of 4.5 nM, a koff of 0.00012 s⁻¹ and a kon of 27000 M⁻¹ s⁻¹. This molecule also displayed a fold lower affinity (against the human receptors) in [8] of 10 fold. In addition, the fold lower affinity (against the human receptors) in [9] was found to be 10 fold. In [3], this molecule gave an IC50 for inhibition of pp28 expression (HCMV infected NHDF, western blot) of 0.4 nM; a concentration that completely inhibits the cytopathic effect of HCMV of 100 pM; a dose for 50% cytotoxicity to HT29 cells (MTT, with IFNγ) of 10 to 100 pM; an up-regulation of ICAM expression by NHDF cells (fold induction, flow cytometry) of 4 fold. The molecule also yielded an EC50 (read off the curve) in assay [10] of 0.3 nM.

In assay [1], LIGHTt66-FLAG mutant Y173F (ligand) came in with a Kd of 180 nM and a fold lower affinity than LIGHT t66 greater than 40 fold. For the same molecule, in assay [2], the Kd came out at 173 nM, the koff was determined as 0.0033 s⁻¹ and the kon was 19000 M⁻¹ s⁻¹. Besides, in assay [5], the Kd amounted to 31 nM, the koff is 0.0011 s⁻¹ and the kon is 37000 M⁻¹ s⁻¹. In assay [3], the 50% cell death of HT29 cells (MTT, 72 h, with IFNγ) stood at 0.001 µM and the up-regulation of ICAM expression by NHDF cells (fold induction, flow cytometry) amounted to 2.5 fold.

With LIGHTt66-FLAG mutant L120Q (ligand), the EC50 (read off the curve) in assay [11] amounted to 0.08 nM. This molecule showed a 50% cell death of HT29 cells (MTT, 72 h, with IFNγ) in assay [3] of 10 µM.

Consider “LTβR:Fc (as printed in Examples 1 to 4; human or mouse not said) (Fc fusion)”, for which the IC50 (read off the curve) in [12] stood at 10 µg/mL.

B1: gD-1 (Δ290-299t), mutant of soluble HSV gD-1 (ligand)
chain: KYALVDASLKMADPNRFRGKDLPVLDQLTDPPGVRRVYHIQAGLPDPFQPPSLPITVYYAVLERACRSVLLNAPSEAPQIVRGASEDVRKQPYNLTIAWFRMGGNCAIPITVMEYTECSYNKSLGACPIRTQPRWNYYDSFSAVSEDNLGFLMHAPAFETAGTYLRLVKINDWTEITQFILEHRAKGSCKYALPLRIPPSACLSPQAYQQGVTVDSIGMLPRFIPENQRTVAVYSLKIAGWHGPKAPYTSTLLPPELSETPNATQPELAPEDPEDSALLEDPVGTVAPQQDAATPY
For the molecule B1, the “IC50 (read off the curve)” value in assay [13] was roughly 6 µg/mL.

B2: soluble HSV gD-1 (glycoprotein D of HSV-1) (ligand)
chain: KYALVDASLKMADPNRFRGKDLPVLDQLTDPPGVRRVYHIQAGLPDPFQPPSLPITVYYAVLERACRSVLLNAPSEAPQIVRGASEDVRKQPYNLTIAWFRMGGNCAIPITVMEYTECSYNKSLGACPIRTQPRWNYYDSFSAVSEDNLGFLMHAPAFETAGTYLRLVKINDWTEITQFILEHRAKGSCKYALPLRIPPSACLSPQAYQQGVTVDSIGMLPRFIPENQRTVAVYSLKIAGWHGPKAPYTSTLLPPELSETPNATQPELAPEDPEDSALLEDPVGTVAPQIPPNWHIPSIQDAATPY
With B2, the “IC50 (read off the curve)” value in [13] was roughly 20 µg/mL.

B3: recombinant soluble LTα1β2 (ligand)
chain 1: LPGVGLTPSAAQTARQHPKMHLAHSTLKPAAHLIGDPSKQNSLLWRANTDRAFLQDGFSLSNNSLLVPTSGIYFVYSQVVFSGKAYSPKATSSPLYLAHEVQLFSSQYPFHVPLLSSQKMVYPGLQEPWLHSMYHGAAFQLTQGDQLSTHTDGIPHLVLSPSTVFFGAFAL
chain 2: QDQGGLVTETADPGAQAQQGLGFQKLPEEEPETDLSPGLPAAHLIGAPLKGQGLGWETTKEQAFLTSGTQFSDAEGLALPQDGLYYLYCLVGYRGRAPPGGGDPQGRSVTLRSSLYRAGGAYGPGTPELLLEGAETVTPVLDPARRQGYGPLWYTSVGFGGLVQLRRGERVYVNISHPDMVDFARGKTFFGAVMVG
On to B3, for which the “IC50 for inhibition of pp28 expression (HCMV infected NHDF, western blot)” value in assay [14] stood at 1 nM.

B4: LTα homotrimer (ligand, UniProt P01374 35-205, looked up)
chain: LPGVGLTPSAAQTARQHPKMHLAHSTLKPAAHLIGDPSKQNSLLWRANTDRAFLQDGFSLSNNSLLVPTSGIYFVYSQVVFSGKAYSPKATSSPLYLAHEVQLFSSQYPFHVPLLSSQKMVYPGLQEPWLHSMYHGAAFQLTQGDQLSTHTDGIPHLVLSPSTVFFGAFAL
notes: One entry for the recombinant protein and for the native LTα (23-25 kDa, and the 23 kDa precursor) of the human II-23.D7 cells; also called recombinant LTα; secreted LTα
Consider B4, for which the figures for the “IC50 (read off the curve)” value in assay [15] and in [16] were roughly 30 nM and roughly 50 nM, respectively.

B5: Fas:Fc (Fc fusion, UniProt P25445 26-173, looked up)
chain: QVTDINSKGLELRKTVTTVETQNLEGLHHDGQFCHKPCPPGERKARDCTVNGDEPDCVPCQEGKEYTDKAHFSSKCRRCRLCDEGHGLEVEINCTRTQNTKCRCKPNFFCNSTVCEHCDPCTKCEHGIIKECTLTSNTKCKEEGSRSN
notes: not shown: Fc region of human IgG1
For B5, the binding result in assay [17] is given as “no binding”.
